Source: patent US20180177842A1 (CANIMGUIDE THERAPEUTICS, published 2018)

T1: P3028 (VFDEFKPLVEEPQNLIK, SEQ ID NO: 185), His-tagged (human)
T1 construct: Synthetic fragment of human serum albumin (positions 397-413); used in solution as His-tagged peptide PGE73; also called PGE73; not shown: His-tag
T1 peptide: VFDEFKPLVEEPQNLIK


Molecular target: T1, P3028 (VFDEFKPLVEEPQNLIK, SEQ ID NO: …)
Assay: PEPSCAN ELISA; peptide on chip, His-P3028 added;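 note: peroxidase color development with ABTS and H2O2 substrate, OD405 imaged by CCD camera with image processing and taken as raw values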
Method: After washing, the peroxidase substrate 2,2′-azine-di-3-ethylbenzthiazoline sulfonate (ABTS) and 2 μL of 3% H2O2 were added. The binding capacity of the mAb was measured as a color development at 405 nm (optical density, OD405). The color development was quantified with a charge-coupled device (CCD)—camera and an image processing system.
The OD405-values obtained by a CCD-camera was considered as raw data values (“rampo values,” “rampo units,” or “rampo scores”). […] First the CCD-camera made a picture of the card before peroxidase coloring and then again a picture after the peroxidase coloring. […] These values were copied into an excel file and labeled as a raw data file. […] Sometimes a well can contain an air-bubble resulting in a false-positive value. If manual inspection of the cards detect an air-bubble the value are set to 0 for well.

Binder	RAMPO Score
KKLDEFFVKLSLFTER [KKLDEFFVKLSLFTER (SEQ ID NO: 456)]	341 rampo units
KKLDTFFVKLSLFAER [KKLDTFFVKLSLFAER (SEQ ID NO: 489)]	305 rampo units
KKLDTFFVKLRLFTER [KKLDTFFVKLRLFTER (SEQ ID NO: 464)]	333 rampo units
KKLDTFFVKLSGFTER [KKLDTFFVKLSGFTER (SEQ ID NO: 431)]	370 rampo units
KKLDTAFVKLSLFTER [KKLDTAFVKLSLFTER (SEQ ID NO: 313)]	575 rampo units
KKLDNFFVKLSLFTER [KKLDNFFVKLSLFTER (SEQ ID NO: 306)]	436 rampo units
KKLDTFDVKLSLFTER [KKLDTFDVKLSLFTER (SEQ ID NO: 492)]	301 rampo units
KKLDTFFVKLSLFFER [KKLDTFFVKLSLFFER (SEQ ID NO: 376)]	348 rampo units
KKLDMFFVKLSLFTER [KKLDMFFVKLSLFTER (SEQ ID NO: 305)]	475 rampo units
KKLDTFFVKLSLFGER [KKLDTFFVKLSLFGER (SEQ ID NO: 377)]	343 rampo units
KKLDTFFVKLELFTER [KKLDTFFVKLELFTER (SEQ ID NO: 532)]	234 rampo units
KKLDTFFAKLSLFTER [KKLDTFFAKLSLFTER (SEQ ID NO: 495)]	299 rampo units
KKLDTFFVKLSLATER [KKLDTFFVKLSLATER (SEQ ID NO: 361)]	525 rampo units
KKLDTFFVKLFLFTER [KKLDTFFVKLFLFTER (SEQ ID NO: 522)]	250 rampo units
KKLDLFFVKLSLFTER [KKLDLFFVKLSLFTER (SEQ ID NO: 484)]	311 rampo units
KKLDTFFVKLSLFMER [KKLDTFFVKLSLFMER (SEQ ID NO: 381)]	501 rampo units
KKLDRFFVKLSLFTER [KKLDRFFVKLSLFTER (SEQ ID NO: 309)]	430 rampo units
KKLDTFFCKLSLFTER [KKLDTFFCKLSLFTER (SEQ ID NO: 519)]	254 rampo units
KKLDTFFVKLHLFTER [KKLDTFFVKLHLFTER (SEQ ID NO: 345)]	535 rampo units
KKLDTFFVKLSLCTER [KKLDTFFVKLSLCTER (SEQ ID NO: 362)]	400 rampo units
KKLDSFFVKLSLFTER [KKLDSFFVKLSLFTER (SEQ ID NO: 310)]	458 rampo units
KKLDKFFVKLSLFTER [KKLDKFFVKLSLFTER (SEQ ID NO: 530)]	237 rampo units
KKLDTFFVKLQLFTER [KKLDTFFVKLQLFTER (SEQ ID NO: 348)]	768 rampo units
KKLDPFFVKLSLFTER [KKLDPFFVKLSLFTER (SEQ ID NO: 307)]	427 rampo units

Binder	RAMPO Score
KKLDTFFVKLILFTER [KKLDTFFVKLILFTER (SEQ ID NO: 505)]	289 rampo units
KKLDTFFVKLGLFTER [KKLDTFFVKLGLFTER (SEQ ID NO: 99)]	288 rampo units
KKLDTFFVKLSAFTER [KKLDTFFVKLSAFTER (SEQ ID NO: 350)]	462 rampo units
KKLDTFFIKLSLFTER [KKLDTFFIKLSLFTER (SEQ ID NO: 416)]	401 rampo units
KKLDGFFVKLSLFTER [KKLDGFFVKLSLFTER (SEQ ID NO: 95)]	386 rampo units
KKLDTFFVKLSLFLER [KKLDTFFVKLSLFLER (SEQ ID NO: 380)]	360 rampo units
KKLDQFFVKLSLFTER [KKLDQFFVKLSLFTER (SEQ ID NO: 308)]	535 rampo units
KKLDTFFGKLSLFTER [KKLDTFFGKLSLFTER (SEQ ID NO: 327)]	379 rampo units
KKLDTFFVKHSLFTER [KKLDTFFVKHSLFTER (SEQ ID NO: 502)]	293 rampo units
KKLDTFFVKLMLFTER [KKLDTFFVKLMLFTER (SEQ ID NO: 346)]	744 rampo units
KKLDTFFVKLSLFCER [KKLDTFFVKLSLFCER (SEQ ID NO: 520)]	254 rampo units
KKLDTFFVKLSFFTER [KKLDTFFVKLSFFTER (SEQ ID NO: 422)]	389 rampo units
KKLDTFFVKLKLFTER [KKLDTFFVKLKLFTER (SEQ ID NO: 473)]	323 rampo units
KKLDTFFVKLSIFTER [KKLDTFFVKLSIFTER (SEQ ID NO: 352)]	456 rampo units
KKLDTFFVKLSCFTER [KKLDTFFVKLSCFTER (SEQ ID NO: 455)]	342 rampo units
KKLDTFFFKLSLFTER [KKLDTFFFKLSLFTER (SEQ ID NO: 326)]	358 rampo units
KKLDTFCVKLSLFTER [KKLDTFCVKLSLFTER (SEQ ID NO: 409)]	411 rampo units
KKLDTFFVKLALFTER [KKLDTFFVKLALFTER (SEQ ID NO: 477)]	318 rampo units
KKLDTFEVKLSLFTER [KKLDTFEVKLSLFTER (SEQ ID NO: 424)]	381 rampo units
KKLDTFFVKLSLFIER [KKLDTFFVKLSLFIER (SEQ ID NO: 379)]	375 rampo units
KKLDTFFVKLSLFHER [KKLDTFFVKLSLFHER (SEQ ID NO: 378)]	463 rampo units
KKLDTFFVKLSHFTER [KKLDTFFVKLSHFTER (SEQ ID NO: 351)]	460 rampo units
KKLDTFFVKASLFTER [KKLDTFFVKASLFTER (SEQ ID NO: 332)]	426 rampo units
KKLDTFFVKLPLFTER [KKLDTFFVKLPLFTER (SEQ ID NO: 470)]	328 rampo units

Binder	RAMPO Score
KKLDTFAVKLSLFTER [KKLDTFAVKLSLFTER (SEQ ID NO: 404)]	426 rampo units
KKLDTFFVKCSLFTER [KKLDTFFVKCSLFTER (SEQ ID NO: 508)]	283 rampo units
KKLDTFFQKLSLFTER [KKLDTFFQKLSLFTER (SEQ ID NO: 513)]	271 rampo units
KKLDTFFVKGSLFTER [KKLDTFFVKGSLFTER (SEQ ID NO: 334)]	495 rampo units
KKLDHFFVKLSLFTER [KKLDHFFVKLSLFTER (SEQ ID NO: 420)]	391 rampo units
KKLDTFFVKLSKFTER [KKLDTFFVKLSKFTER (SEQ ID NO: 438)]	355 rampo units
KKLDTFFVKLNLFTER [KKLDTFFVKLNLFTER (SEQ ID NO: 347)]	451 rampo units
KKLDTFFVKLCLFTER [KKLDTFFVKLCLFTER (SEQ ID NO: 457)]	341 rampo units
KKLDFFFVKLSLFTER [KKLDFFFVKLSLFTER (SEQ ID NO: 504)]	290 rampo units
KKLDTFFVKKSLFTER [KKLDTFFVKKSLFTER (SEQ ID NO: 506)]	285 rampo units
KKLDTFFLKLSLFTER [KKLDTFFLKLSLFTER (SEQ ID NO: 328)]	411 rampo units
KKLDTFFVKISLFTER [KKLDTFFVKISLFTER (SEQ ID NO: 335)]	415 rampo units
KKLDTFFPKLSLFTER (also called 32251) [KKLDTFFPKLSLFTER (SEQ ID NO: 329)]	456 rampo units
KKLDTFFVHLSLFTER [KKLDTFFVHLSLFTER (SEQ ID NO: 488)]	306 rampo units
KKLDIFFVKLSLFTER [KKLDIFFVKLSLFTER (SEQ ID NO: 501)]	293 rampo units
KKLDTFFVKFSLFTER [KKLDTFFVKFSLFTER (SEQ ID NO: 333)]	403 rampo units
KKLDTFFVKLDLFTER [KKLDTFFVKLDLFTER (SEQ ID NO: 474)]	322 rampo units
KKLDTFFRKLSLFTER [KKLDTFFRKLSLFTER (SEQ ID NO: 330)]	365 rampo units
KKLDTFFVKLSLFKER [KKLDTFFVKLSLFKER (SEQ ID NO: 517)]	259 rampo units
KKLDTFFVKLSLFNER [KKLDTFFVKLSLFNER (SEQ ID NO: 382)]	599 rampo units
KKLDTCFVKLSLFTER [KKLDTCFVKLSLFTER (SEQ ID NO: 462)]	335 rampo units
KKLDTFFVELSLFTER [KKLDTFFVELSLFTER (SEQ ID NO: 527)]	240 rampo units
KKLDTFFTKLSLFTER [KKLDTFFTKLSLFTER (SEQ ID NO: 496)]	298 rampo units
